{
  "source": "paper PMC5391116",
  "about": "(PLoS ONE, 2017)",
  "binders": {"B1": {"name": "IgG1 MET antibody (variable regions from LY2875358 on human IgG1 constant regions) (antibody, V domains shown)", "VH": "QVQLVQSGAEVKKPGASVKVSCKASGYTFTDYYMHWVRQAPGQGLEWMGRVNPNRRGTTYNQKFEGRVTMTTDTSTSTAYMELRSLRSDDTAVYYCARANWLDYWGQGTTVTVSS", "VL": "DIQMTQSPSSLSASVGDRVTITCSVSSSVSSIYLHWYQQKPGKAPKLLIYSTSNLASGVPSRFSGSGSGTDFTLTISSLQPEDFATYYCQVYSGYPLTFGGGTKVEIK"}},
  "target": "Human MET ECD (extracellular domain) containing a FLIS tag (Homo sapiens, UniProt P08581)",
  "sequence (P08581 25-932)": "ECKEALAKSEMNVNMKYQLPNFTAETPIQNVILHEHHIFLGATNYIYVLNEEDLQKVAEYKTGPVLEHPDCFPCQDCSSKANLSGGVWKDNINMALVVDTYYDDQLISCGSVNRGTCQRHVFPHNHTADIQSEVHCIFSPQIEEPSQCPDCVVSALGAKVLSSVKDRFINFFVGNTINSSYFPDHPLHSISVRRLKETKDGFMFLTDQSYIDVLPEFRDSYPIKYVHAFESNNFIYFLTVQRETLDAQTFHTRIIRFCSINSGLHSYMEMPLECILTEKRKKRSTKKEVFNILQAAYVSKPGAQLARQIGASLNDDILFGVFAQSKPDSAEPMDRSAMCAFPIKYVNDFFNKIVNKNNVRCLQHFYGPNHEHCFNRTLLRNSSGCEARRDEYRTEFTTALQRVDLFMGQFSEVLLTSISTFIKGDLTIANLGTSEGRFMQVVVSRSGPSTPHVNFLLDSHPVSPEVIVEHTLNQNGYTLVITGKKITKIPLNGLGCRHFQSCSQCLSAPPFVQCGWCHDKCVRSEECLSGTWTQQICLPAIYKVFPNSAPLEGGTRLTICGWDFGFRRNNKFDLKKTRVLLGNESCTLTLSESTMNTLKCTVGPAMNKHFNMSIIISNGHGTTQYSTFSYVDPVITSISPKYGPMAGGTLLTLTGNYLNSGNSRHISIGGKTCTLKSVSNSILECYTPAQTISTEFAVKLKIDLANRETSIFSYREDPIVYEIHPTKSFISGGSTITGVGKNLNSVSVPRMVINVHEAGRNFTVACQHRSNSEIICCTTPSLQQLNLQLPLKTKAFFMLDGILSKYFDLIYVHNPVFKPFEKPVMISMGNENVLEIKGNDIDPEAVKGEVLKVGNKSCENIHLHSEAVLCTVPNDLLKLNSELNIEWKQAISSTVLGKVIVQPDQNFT",
  "experiment": "cell-based or functional assay",
  "data": [
    {"binder": "B1", "values": [
      {"measurement": "phospho-AKT activity levels in Caki-1 cells (MSD ELISA), various doses of antibody for 15 minutes", "result": "> 8", "unit": "fold"}
    ]}
  ]
}
